According to US20190062438A1 (CSL, published 2019):
Where a chain is given by its changes, count along the chain named.

Columns and labels:
Assay in all cases: SPR, kinetics, Fab over captured mutant
shCD131 I424A = biological target: T1, shCD131 I424A (human, UniProt P32927 17-438)
T1 construct: C-terminal 6xHis; also called 1424A
T1 sequence: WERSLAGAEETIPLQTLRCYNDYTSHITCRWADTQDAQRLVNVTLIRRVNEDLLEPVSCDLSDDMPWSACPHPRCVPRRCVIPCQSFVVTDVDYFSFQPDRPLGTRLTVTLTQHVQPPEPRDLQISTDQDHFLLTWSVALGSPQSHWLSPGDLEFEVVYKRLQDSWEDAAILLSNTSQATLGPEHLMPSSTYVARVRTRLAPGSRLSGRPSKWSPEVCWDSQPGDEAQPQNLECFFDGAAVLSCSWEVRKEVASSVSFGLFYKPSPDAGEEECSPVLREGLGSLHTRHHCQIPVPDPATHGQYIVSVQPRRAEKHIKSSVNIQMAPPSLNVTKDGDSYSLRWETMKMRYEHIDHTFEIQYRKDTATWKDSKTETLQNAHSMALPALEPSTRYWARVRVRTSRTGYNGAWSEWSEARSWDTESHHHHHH
Procedure: (§1) As shβc is a dimer, kinetics assays were performed with shβc captured on the sensor surface, and purified Fab injected as the analyte. Avidity effects were avoided by the use of Fab rather than whole IgG.
(§2) shCD131 was captured on spots 1 and 5 of each flow cell for 2 minutes at a concentration of 0.4 μg/ml. […] For some analysis purified Fab was injected over each flow cell for 3 minutes and dissociation was monitored for a further 10 minutes. Regeneration of the surface was performed after each cycle with a 40 second injection of 25 mM glycine, pH 2.0. The analysis was performed with Fabs at several concentrations between 100 and 0.31 nM, with each concentration analyzed twice and in random order. The analysis was performed at a flow rate of 30 μl/min in HBS-EP buffer (10 mM Hepes, 150 mM NaCl, 3 mM EDTA, 0.005% Tween 20, pH 7.4) at 37° C. Responses from spots 2 and 4 of each flow cell, (in which shβc was not captured, but otherwise treated identically), were subtracted from those of spots 1 and 5 respectively to produce reference subtracted data. Reference subtracted responses from a blank injection comprising buffer alone were subtracted from the resultant sensorgrams to produce double referenced data suitable for kinetic analysis. Double-referenced sensorgrams were fitted using non-linear regression to a model describing 1:1 kinetics, including a term for mass transport limitation. The Rₘₐₓ value was fitted locally to account for slight deviations in the level of sCD131 captured, with association rate (kₐ), dissociation rate (kd) and equilibrium dissociation constant (KD) fitted globally.
(§3) Mapping of the shCD131 epitope was performed by measurement of the affinity of Fabs for various alanine point mutants of shCD131 essentially as described above, with the following exceptions. Each shCD131 mutant was captured for 120 seconds at concentrations between 1 and 5 μg/ml. For kinetic analysis, purified recombinant Fabs were injected for 2 minutes, and dissociation was monitored for a further 2 minutes. […] Fab concentrations ranged from 16 μM to 3.9 nM in two-fold dilutions.

shCD131 V108A = biological target: T2, shCD131 V108A (human, UniProt P32927 17-438)
T2 construct: C-terminal 6xHis
T2 sequence: T1 sequence with V92A, A408I
Procedure: as §1, §2, §3

shCD131 S41A = biological target: T3, shCD131 S41A (human, UniProt P32927 17-438)
T3 construct: C-terminal 6xHis
T3 sequence: T1 sequence with S25A, A408I
Procedure: as §1, §2, §3

shCD131 R418A = biological target: T4, shCD131 R418A (human, UniProt P32927 17-438)
T4 construct: C-terminal 6xHis
T4 sequence: T1 sequence with R402A, A408I
Procedure: as §1, §2, §3

Kd (shCD131 I424A): 0.126 µM
Kd (shCD131 V108A): 0.083 µM
Kd (shCD131 S41A): 0.056 µM
Kd (shCD131 R418A): 0.07 µM
B1: 9A2 Fab (Fab, V domains shown)
VH: EVQLLESGGGLVQPGGSLRLSCAASGFTFSHYHMLWVRQAPGKGLEWVSSIRSSGGFTYYADSVKGRFTISRDNSKNTLYLQMNSLRAEDTAVYYCARFYDSFFDIWGQGTMVTVSS
VL: DIQMTQSPSSVSASVGDRVTITCRASQGISSWLAWYQQKPGKAPKLLIYAASSLQSGVPSRFSGSGSGTDFTLTISSLQPEDFATYYCQQANSFPITFGQGTRLEIKR
notes: also called recombinant Fab of 9A2
